This is an account of results in patent US20220267443A1.

The experiment concerns the target CTLA-4-Ig. Description: -; modified from Xu et al., JI 2012.

As for CD80-Fc-His, the Kd (usually the equilibrium constant for the complex coming apart) stood at 0.3 nM.
The value for CD86-Fc-His was 3.6 nM.
